Experimental findings from the supplement of paper PMC9942255 are described below.

The test system of the data set is Bacillus subtilis DB104 (SP-AmyQ fusion secretion). As to the kind of experiment: AmyQ secretion efficiency, weighted average sort bin (1 = best secretion, 10 = worst) (bin number (weighted average, 1-10)); higher = lower secretion efficiency. An outline of the steps:
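The secretion score gives the average bin number weighted by read frequency and normalised to beads per bin, with low-abundance sequences excluded. Bins were 10 equally populated green/red fluorescence ratio fractions of occupied ~65 nL alginate beads, sorted by large-particle flow cytometry. The beads held fluorescein-starch and about 0.3 cells each of an amyE-integrated B. subtilis DB104 library fusing designed signal peptides to mature AmyQ, and they were grown about 13 h at room temperature and stained with nile red before sorting and Illumina sequencing.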

“And” between values parts separate entries of the source, which are not always exact repeats. Identical values can stand only once.

In turn, MKLAKRVSALTPSTTLAITGFVGSTTFTAPTAKAKEL came in with an AmyQ secretion efficiency of 6.19.
In turn, MKLAKRVSALTPSTTLAITGKAKEL yielded an AmyQ secretion efficiency of 7.09.
MKLAKRVSALTPSTTLAITIKAKEL had an AmyQ secretion efficiency of 8.5.
Sequence MKLAKRVSALTPSTTLAITKKAKEL registered an AmyQ secretion efficiency of 6.57.
For the sequence MKLAKRVSALTPSTTLAITLKAKEL, the AmyQ secretion efficiency was 8.05.
For MKLAKRVSALTPSTTLAITMKAKEL, the AmyQ secretion efficiency was 6.37.
The result for MKLAKRVSALTPSTTLAITNKAKEL reads 7.12.
In turn, MKLAKRVSALTPSTTLAITQKAKEL registered an AmyQ secretion efficiency of 5.63.
In turn, MKLAKRVSALTPSTTLAITRKAKEL yielded an AmyQ secretion efficiency of 7.25.
The sequence MKLAKRVSALTPSTTLAITSKAKEL showed an AmyQ secretion efficiency of 8.31.
For the sequence MKLAKRVSALTPSTTLAITTKAKEL, the AmyQ secretion efficiency was 6.55.
The result for MKLAKRVSALTPSTTLAITVKAKEL reads 6.82; that for MKLAKRVSALTPSTTLAITWKAKEL, 5.85; that for MKLAKRVSALTPSTTLAITYKAKEL, 6.96.
Take MKLAKRVSALTPSTTLAIVAKAKEL: the AmyQ secretion efficiency turned out to be 6.85.
With MKLAKRVSALTPSTTLAIVIFAKAKEL, the AmyQ secretion efficiency is 8.15.
As to MKLKKRFLVALTMCGGLFVTPAKAVKT, the AmyQ secretion efficiency stood at 7.15.
MKLKKRVSMFKKALTMCGGLFVTPAKAVKT had an AmyQ secretion efficiency of 7.21.
The result for MKLKKRVSMFKRRRTMCGGLFVTPAKAVKT reads 6.84; that for MKLKKRVSMFLVALLMCLLLFVSTPAKAVKT, 4.33.
Then MKLKKRVSMFLVALTMCGGLFVEPAKAVKT, with 2.69; and MKLKKRVSMFLVALTMCGGLFVFAAKAVKT, with 5.56; and MKLKKRVSMFLVALTMCGGLFVITVFTAVFTPAKAVKT, with 7.26.
Then MKLKKRVSMFLVALTMCGGLFVRRAKAVKT, with 7.34; and MKLKKRVSMFLVALTMCGGLFVRRRKRAKAVKT, with 6.98.
With MKLKKRVSMFLVALTMCGGLFVTAAKAVKT, the AmyQ secretion efficiency was found to be 4.92.
Sequence MKLKKRVSMFLVALTMCGGLFVTPAKAEEE registered an AmyQ secretion efficiency of 2.9.
For the sequence MKLKKRVSMFLVALTMCGGLFVTPAKAVPR, the AmyQ secretion efficiency worked out at 1.68.
Regarding MKLKKRVSMFLVALTMCGGLFVTPAKAVST, the AmyQ secretion efficiency is 2.23.
For MKLKKRVSMFLVALTMCGGLFVTPAKAVTD, the AmyQ secretion efficiency is 3.07.
The sequence MKLKKRVSMFLVALTMCGGLFVTPAKYVKT returned an AmyQ secretion efficiency of 5.18.
The result for MKLKKRVSMFLVALTMCGGLFVTPCKAVKT reads 2.35.
As for MKLKKRVSMFLVALTMCGGLFVTPFKAVKT, the AmyQ secretion efficiency came out at 6.39.
In turn, MKLKKRVSMFLVALTMCGGLFVTPPFVAKAVKT had an AmyQ secretion efficiency of 4.47.
As to MKLKKRVSMFLVALTMCGGLFVTPQAKAVKT, the AmyQ secretion efficiency is 3.89.
In the case of MKLKKRVSMFLVALTMCGGLFVTPSFPPTAPAKAVKT, the AmyQ secretion efficiency was determined as 5.25.
For MKLKKRVSMFLVALTMCGGLFVTPTKAVKT, the AmyQ secretion efficiency came to 3.85.
The sequence MKLKKRVSMFLVALTMCGGLFVTPVKAVKT came in with an AmyQ secretion efficiency of 2.64.
MKLKKRVSMFLVALTMCGGLFVTVIIVAKAVKT registered an AmyQ secretion efficiency of 6.35.
Consider MKLKKRVSMFLVALTMCGTPAKAVKT, for which the AmyQ secretion efficiency is 2.72.
MKLKKRVSMFRKKKRKCGGLFVTPAKAVKT displayed an AmyQ secretion efficiency of 7.44.
For MKLKKRVSMGLVALTMCGGLFVTPAKAVKT, the AmyQ secretion efficiency stood at 2.55.
In the case of MKLKKRVSMSSMFLVALTMCGGLFVTPAKAVKT, the AmyQ secretion efficiency amounted to 1.95.
Sequence MKLKKRVSMTSKSSGSCRSLFVTPAKAVKT gave an AmyQ secretion efficiency of 7.23.
On to MKLKKRVSMYTQALTMCGGLFVTPAKAVKT, for which the AmyQ secretion efficiency amounted to 5.95.
For MKLKKRVSYFLVALTMCGGLFVTPAKAVKT, the AmyQ secretion efficiency turned out to be 6.42.
Then MKLKSKLFVICLAAAAIFRKKKVSANAEALDF, with 6.32; and MKLKSKLFVICLAAAAIFTAAGVSANAEALDF, with 7.41 and 6.26; and MKLKSKLFVICLAAAAIFTAAGVSANNEALDF, with 5.76.
As to MKLKSKLFVICLAAATAAGVSANAEALDF, the AmyQ secretion efficiency is 5.89.
The result for MKLKSKLLLMCLALLIVFVGATTIANAPTH reads 8.04; that for MKLKSKLLLSCLALSTVFVATTIANAKRR, 7.22.
In the case of MKLKSKLLLSCLALSTVFVATTIANAPRR, the AmyQ secretion efficiency came to 6.72.
MKLKSKLLLSCLALSTVFVATTIANAPTR: the AmyQ secretion efficiency worked out at 6.08.
Turning to MKLKSKLLLSCLALSTVFVATTIANCPTH, the AmyQ secretion efficiency is 7.55.
In turn, MKLKSKLLLSCLALSTVFVATTIANEPTH had an AmyQ secretion efficiency of 7.21.
In the case of MKLKSKLLLSCLALSTVFVATTIANHPTH, the AmyQ secretion efficiency is 4.89.
Sequence MKLKSKLLLSCLALSTVFVATTIANIPTH yielded an AmyQ secretion efficiency of 5.95.
Sequence MKLKSKLLLSCLALSTVFVATTIANLPTH had an AmyQ secretion efficiency of 6.34.
Then MKLKSKLLLSCLALSTVFVATTIANNPTH, with 5.17.
In turn, MKLKSKLLLSCLALSTVFVATTIANSPTH displayed an AmyQ secretion efficiency of 3.78.
MKLKSKLLLSCLALSTVFVATTICNAPTH gave an AmyQ secretion efficiency of 5.85.
In the case of MKLKSKLLLSCLALSTVFVATTIGNAPTH, the AmyQ secretion efficiency turned out to be 7.24.
Then MKLKSKLLLSCLALSTVFVATTIKNAPTH, with 6.58; and MKLKSKLLLSCLALSTVFVATTILNAPTH, with 6.08; and MKLKSKLLLSCLALSTVFVATTIVNAPTH, with 5.07.
Turning to MKLKSKLLLSCLALSTVFVATTIWNAPTH, the AmyQ secretion efficiency was 6.19.
MKLKSKLLLSCLALSTVFVLFSTATTIANAPTH showed an AmyQ secretion efficiency of 4.84.
In the case of MKLKSKLLLSCLALSTVFVRKRIANAPTH, the AmyQ secretion efficiency is 6.91.
The result for MKLKSKLRKKCRRRSTVFVATTIANAPTH reads 7.48; that for MKLKSKYKGGCYAAAAIFTAAGVSANAEALDF, 7.31; that for MKLKSKYYKGCRSTSTVFVATTIANAPTH, 7.35.
Sequence MKLRKMVLTGSVLSLGLLVSASPAFATSP came in with an AmyQ secretion efficiency of 1.54.
MKLRKSTKYQSYSLGLLVSASPAFATSP: the AmyQ secretion efficiency was 6.69.
The result for MKLRKVLTGSVLSLGLLDDEEDDAFATSP reads 7.86; that for MKLRKVLTGSVLSLGLLEKDSPAFATSP, 6.38.
Sequence MKLRKVLTGSVLSLGLLIVSASPAFATSP had an AmyQ secretion efficiency of 2.48.
On to MKLRKVLTGSVLSLGLLKRRRKKAFATSP, for which the AmyQ secretion efficiency was found to be 5.35.
MKLRKVLTGSVLSLGLLPPSSPAFATSP gave an AmyQ secretion efficiency of 1.49.
MKLRKVLTGSVLSLGLLRKKSPAFATSP showed an AmyQ secretion efficiency of 8.19.
For the sequence MKLRKVLTGSVLSLGLLVSASPAFAEEE, the AmyQ secretion efficiency turned out to be 2.06.
MKLRKVLTGSVLSLGLLVSASPAFARKR gave an AmyQ secretion efficiency of 5.66.
